{"source": "paper PMC3178552", "about": "(PLoS Pathogens, 2011)", "binders": {"B1": {"name": "N[change] in fusion with an N-terminal maltose binding protein tag (MBP-N[change]) (domain or fragment)", "chain": "EDPVEYPADYFRKSKEIPLYINTTKSLSDLRGYVYQGLKSGNVSIIHVNSYLYGALKDIRGKLDKDWSSFGINIGKAGDTIGIFDLVSLKALDGVLPDGVSDASRTSADDKWLPLYLLGLYRVGRTQMPEYRKKLMDGLTNQCKMINEQFEPLVPEGRDIFDVWGNDSNYTKIVAAVDMFFHMFKKHECASFRYGTIVSRFKDCAALATFGHLCKITGMSTEDVTTWILNREVADEMVQMMLPGQEIDKADSYMPYLIDFGLSSKSPYSSVKNPAFHFWGQLTALLLRSTRARNARQPDDIEYTSLTTAGLLYAYAVGSSADLAQQFCVGDNKYTPDDSTGGLTTNAPPQGRDVVEWLGWFEDQNRKPTPDMMQYAKRAVMSLQGLREKTIGKYAKSEFDK"}, "B2": {"name": "full-length VSV phosphoprotein P dimer (natural protein)", "chain": "MDNLTKVREYLKSYSRLDQAVGEIDEIEAQRAEKSNYELFQEDGVEEHTKPSYFQAADDSDTESEPEIEDNQGLYAQDPEAEQVEGFIQGPLDDYADEEVDVVFTSDWKPPELESDEHGKTLRLTSPEGLSGEQKSQWLSTIKAVVQSAKYWNLAECTFEASGEGVIMKERQITPDVYKVTPVMNTHPSQSEAVSDVWSLSKTSMTFQPKKASLQPLTISLDELFSSRGEFISVGGDGRMSHKEAILLGLRYKKLYNQARVKYSL"}}, "key": {"SEC": {"target": "the molecule itself", "test": "SEC"}, "[1]": {"target": "P60: the first 60 amino acids of VSV phosphoprotein P, a two-amino acid linker and a C-terminal His6-tag (vesicular stomatitis virus, UniProt P03520 1-60)", "test": "NMR titration", "conditions": "both partners purified"}, "[2]": {"target": "T1, vesicular stomatitis virus nucleoprotein lacking its 21 N-terminal residues (N[change]), MBP tag removed (vesicular stomatitis virus, UniProt P03521 22-422)"}, "[3]": {"target": "T1, vesicular stomatitis virus …", "test": "SEC-MALS", "conditions": "both partners purified"}}, "note": "Where two headings read alike, the source gives them in different places.", "data": [{"binder": "B1", "values": [{"measurement": "binding result", "setting": "SEC", "value": "binds"}, {"measurement": "binding result", "setting": "[1]", "value": "binds"}]}, {"binder": "VREYLKSYSRLDQAVGEIDEIEAQRAEKSNYELF", "note": "[shorter peptide encompassing residues 7 to 40 of P]", "values": [{"measurement": "stoichiometry N", "setting": "[2]", "value": 1}]}, {"binder": "B2", "values": [{"measurement": "stoichiometry N", "setting": "[3]", "value": 2, "unit": "P molecules per NΔ21"}]}]}
